From patent US20220185895A1
Blank lines part the entries; values can stand above or below the substance they belong to.

Tests used:
[1] = target: human CD94 (Natural killer cells antigen CD94) (human) (UniProt Q13241); test: flow cytometry, normal liver, CD45+CD3+CD4+ T cells
[2] = target: human CD94 (Natural killer cells antigen CD94) (human) (UniProt Q13241); test: flow cytometry with APC MESF bead calibration, healthy donor PBL, CD3-/CD16+ NK cells
[3] = target: human CD94 (Natural killer cells antigen CD94) (human) (UniProt Q13241); test: flow cytometry with APC MESF bead calibration, healthy donor PBL, CD3-/CD57+ NK cells
[4] = target: human CD94 (Natural killer cells antigen CD94) (human) (UniProt Q13241); test: flow cytometry with APC MESF bead calibration, healthy donor PBL, CD3+CD8+ T cells
[5] = target: human CD94 (Natural killer cells antigen CD94) (human) (UniProt Q13241); test: flow cytometry, CLPD-NK patient PBMC, CD3+CD16+ T-LGL
[6] = target: human CD94 (Natural killer cells antigen CD94) (human) (UniProt Q13241); test: flow cytometry with APC MESF bead calibration, average over healthy donor PBMC, CD3-CD56+ NK cells
[7] = target: human CD94 (Natural killer cells antigen CD94) (human) (UniProt Q13241); test: flow cytometry with APC MESF bead calibration, average over healthy donor PBMC, CD3-CD16+ NK cells
[8] = target: human CD94 (Natural killer cells antigen CD94) (human) (UniProt Q13241); test: flow cytometry with APC MESF bead calibration, average over healthy donor PBMC, CD3-CD57+ NK cells
[9] = target: human CD94 (Natural killer cells antigen CD94) (human) (UniProt Q13241); test: flow cytometry with APC MESF bead calibration, CD94dim T-LGLL patient PBMC, CD3-CD16+ NK cells [Cont.]
[10] = target: human CD94 (Natural killer cells antigen CD94) (human) (UniProt Q13241); test: flow cytometry with APC MESF bead calibration, healthy donor PBL, CD3-/CD56+ NK cells
[11] = target: human CD94 (Natural killer cells antigen CD94) (human) (UniProt Q13241); test: flow cytometry with APC MESF bead calibration, CD94bright T-LGLL patient PBMC, CD3+CD16+ leukemic cells [Cont.]
[12] = target: human CD94 (Natural killer cells antigen CD94) (human) (UniProt Q13241); test: flow cytometry, normal liver, CD45+CD3+CD8+ T cells
[13] = target: human CD94 (Natural killer cells antigen CD94) (human) (UniProt Q13241); test: flow cytometry with APC MESF bead calibration, CD94bright T-LGLL patient PBMC, CD3-CD16+ NK cells [Cont.]
[14] = target: human CD94 (Natural killer cells antigen CD94) (human) (UniProt Q13241); test: flow cytometry, healthy donor PBL, CD3+CD8+ T cells
[15] = target: human CD94 (Natural killer cells antigen CD94) (human) (UniProt Q13241); test: flow cytometry with APC MESF bead calibration, CLPD-NK patient PBMC, CD3+CD16+ T-LGL
[16] = target: human CD94 (Natural killer cells antigen CD94) (human) (UniProt Q13241); test: flow cytometry with APC MESF bead calibration, normal liver, NK cells (panel headed CD45+CD3+CD56+)
[17] = target: human CD94 (Natural killer cells antigen CD94) (human) (UniProt Q13241); test: flow cytometry with APC MESF bead calibration, CD94dim T-LGLL patient PBMC, CD3+CD16- T lymphocytes [Cont.]
[18] = target: human CD94 (Natural killer cells antigen CD94) (human) (UniProt Q13241); test: flow cytometry with APC MESF bead calibration, average over healthy donor PBMC, CD3+CD8+ (CD94+) T cells
[19] = target: human CD94 (Natural killer cells antigen CD94) (human) (UniProt Q13241); test: flow cytometry with APC MESF bead calibration, normal liver, CD45+CD3+CD4+ T cells
[20] = target: human CD94 (Natural killer cells antigen CD94) (human) (UniProt Q13241); test: flow cytometry with APC MESF bead calibration, normal liver, CD45+CD3+CD8+ T cells
[21] = target: human CD94 (Natural killer cells antigen CD94) (human) (UniProt Q13241); test: flow cytometry, CD94bright T-LGLL patient PBMC, CD3+CD16- T lymphocytes [Cont.]
[22] = target: human CD94 (Natural killer cells antigen CD94) (human) (UniProt Q13241); test: flow cytometry with APC MESF bead calibration, CD94bright T-LGLL patient PBMC, CD3+CD16- T lymphocytes [Cont.]
[23] = target: human CD94 (Natural killer cells antigen CD94) (human) (UniProt Q13241); test: flow cytometry, CD94dim T-LGLL patient PBMC, CD3+CD16- T lymphocytes [Cont.]
[24] = target: human CD94 (Natural killer cells antigen CD94) (human) (UniProt Q13241); test: flow cytometry with APC MESF bead calibration, CLPD-NK patient PBMC, CD3+CD8+ T cells
[25] = target: human NKG2A (NKG2-A/NKG2-B type II integral membrane protein) (human) (UniProt P26715); test: cell-based or functional assay
UniProt P26715, sequence (P26715 whole entry): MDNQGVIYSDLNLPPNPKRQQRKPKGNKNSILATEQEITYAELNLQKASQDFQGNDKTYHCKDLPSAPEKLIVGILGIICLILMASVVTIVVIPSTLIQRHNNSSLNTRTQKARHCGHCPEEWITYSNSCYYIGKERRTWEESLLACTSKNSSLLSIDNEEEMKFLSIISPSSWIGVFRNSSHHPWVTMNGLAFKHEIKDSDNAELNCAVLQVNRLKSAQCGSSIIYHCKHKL

UniProt Q13241, sequence (Q13241 whole entry): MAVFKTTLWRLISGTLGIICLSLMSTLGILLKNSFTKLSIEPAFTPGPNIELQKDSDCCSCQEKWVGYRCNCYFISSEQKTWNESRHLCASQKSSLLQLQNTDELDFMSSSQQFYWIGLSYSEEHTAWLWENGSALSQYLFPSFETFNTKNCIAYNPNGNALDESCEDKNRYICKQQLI

Substance: anti-CD94 antibody clone HP-3D9, APC-conjugated (BD Bioscience 559876)
% positive cells [1]: 13%
CD94 receptor number (receptors per cell) [2]: 45000
CD94 receptor number (receptors per cell) [3]: 39000
CD94 receptor number (receptors per cell) [4]: 28000
% positive cells [5]: 16%
Antibody binding capacity (receptors per cell) [6]: 117000
Antibody binding capacity (receptors per cell) [7]: 77000
Antibody binding capacity (receptors per cell) [8]: 73000
CD94 receptor number (receptors per cell) [9]: 14000
CD94 receptor number (receptors per cell) [10]: 51000
CD94 receptor number (receptors per cell) [11]: 177000
% positive cells [12]: 25%
CD94 receptor number (receptors per cell) [13]: 51000
% positive cells [14]: 30%
CD94 receptor number (receptors per cell) [15]: 51000
CD94 receptor number (receptors per cell) [16]: 195000
CD94 receptor number (receptors per cell) [17]: 33000
Antibody binding capacity (receptors per cell) [18]: 45000
CD94 receptor number (receptors per cell) [19]: 55000
CD94 receptor number (receptors per cell) [20]: 97000
% positive cells [21]: 31%
CD94 receptor number (receptors per cell) [22]: 172000
% positive cells [23]: 14%
CD94 receptor number (receptors per cell) [24]: 28000

ADCC assay, depletion of CD3-CD56bright NK cells in fresh healthy donor PBMCs, EC50 [25]: 40 ng/mL
Substance: anti-NKG2A Z199 fucosylated antibody

ADCC assay, depletion of CD3-CD16+ NK leukemic cells in frozen CLPD-NK patient PBMCs, EC50 [25]: 3 ng/mL
ADCC assay, depletion of CD3-CD56bright NK cells in fresh healthy donor PBMCs, EC50 [25]: 3 ng/mL
ADCC assay, potency against the fucosylated Z199 antibody [25]: 13 times
Substance: anti-NKG2A Z199 non-fucosylated antibody
